Measured values taken from the supplement of paper PMC11865577.

Columns and labels:
Assay in all cases: pull-down binding Z-score (relative to library population); higher = stronger binding
[1] = test system: G-clamp-N3 (biotin conjugate); details: RNA library: Library-1 (pre-miRNA loops + repeats)
Method in brief: (§1)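 Binding is given as a Z-score against the library mean and standard deviation, calculated after removing the beads-only signal and averaging barcoded replicate probes without their highest and lowest values. Cy5- or Cy3-end-labelled RNA library (1 μg) was heat-folded in phosphate/NaCl/KCl buffer and incubated 60 min at 25 °C with streptavidin beads bearing 100 pmol of biotin-conjugated small molecule. After three washes, RNA eluted in hot SDS was hybridised to a DNA barcode microarray for 20 h at 55.5 °C.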

[2] = test system: TO-3-N3 (biotin conjugate); details: RNA library: Library-2
Method in brief: as §1

[3] = test system: TO-3-N3-2 (biotin conjugate); details: RNA library: Library-2
Method in brief: as §1

TO-N3 (biotin conjugate) = details: RNA library: Library-2
Method in brief: as §1

[4] = test system: TO-N3-2 (biotin conjugate); details: RNA library: Library-2
Method in brief: as §1

Row | Sequence | pull-down binding Z-score [1] | pull-down binding Z-score [2] | pull-down binding Z-score [3] | pull-down binding Z-score (TO-N3 (biotin conjugate)) | pull-down binding Z-score [4]
1 | GGCCGGUCAGGCA [hsa-mir-4689] | 1.09 | 0.391 | -0.106 | 0.576 | 0.682
2 | UGCUUCCACAUAGCAGCA [hsa-mir-4752] | -0.248 | -0.423 | -0.24 | -0.62 | -0.597
3 | GGGGAGAGGGACACGCCCUGGGCUCUGCCCAGGGUGCAGCCGGACUGACUGAG [hsa-mir-1225] | 1.58 | 1.55 | 1.1 | 1.95 | 1.99
4 | AAUGACUCAUAGUCAA [hsa-mir-4475] | -0.88 | 0.512 | -0.157 | 0.374 | -0.666
5 | GACUGCUCAAGGUCAAAGGGGUC [hsa-mir-3918] | 2.12 | 0.174 | 0.119 | 0.367 | 0.66
6 | GAUUCUGAUUCAGGGACCAAGAUUC [hsa-mir-544a] | 0.649 | 0.724 | 0.354 | 1.04 | 0.414
7 | AGUUUCUGGAAUGUCAGAACUUCCAGAAACU [hsa-mir-3199-2] | -0.327 | 0.748 | 0.034 | 0.392 | -0.865
8 | UAUAACUUGAAGAAUUCAAAUAGUCAUG [hsa-mir-3146] | -0.817 | -0.804 | -0.34 | -1.06 | -0.75
9 | UUUGCCAUUGAAAGUAAUGGCAAA [hsa-mir-548d-2] | 0.739 | -0.691 | -0.422 | -1.12 | -1.04
10 | AGAUCUGUCUCUGAUUGUUUCCAAGAUCU [hsa-mir-6888] | -0.781 | 0.132 | 0.0544 | 0.136 | 0.0817
11 | AGUAGCUGGGAAUACAGGUGUGUGCCACCAUGCCUCUACAAGCUACC [hsa-mir-7851] | -0.609 | -0.469 | -0.134 | -0.0861 | 0.445
12 | UUGACCAAUCAUCUUAUUGACUAGA [hsa-mir-6502] | -1.52 | -0.403 | -0.177 | -0.471 | -0.496
13 | CAGGGGUUCUGAUAAACCCUUC [hsa-mir-6738] | -0.182 | 0.622 | -0.3 | 0.458 | 0.161
14 | CCAAAGAAACUUUUUUGG [hsa-mir-6079] | -0.295 | -0.414 | -0.557 | -0.761 | -1.1
15 | CUCUCGUGUCCACUAGCAGGCAGGUUUUCUGACACAGG [hsa-mir-604] | 0.743 | -0.343 | 0.313 | -0.0789 | 0.566
16 | UUGUGGCUUUGGGUGGAUAUUAAUCAGCCACAG [hsa-mir-383] | 0.747 | 0.257 | 0.274 | 0.0969 | 0.0594
17 | GGCAGGUGCCUCCGUGUUGCCGAACCCUCCU [hsa-mir-6761] | -0.447 | 0.358 | 0.116 | 0.998 | 1.74
18 | CAAUUUGAGACCAAU [hsa-mir-1285-2] | -1.39 | -0.0235 | 0.444 | -0.0272 | 0.218
19 | AUCUUCCUGACCUGGUAAUAAUUAGGUGAGAAGGAU [hsa-mir-8069-2_8069-1] | 0.78 | -0.958 | -0.589 | -1.2 | -1.12
20 | AGUCCGUGCAUCCGCCCUUCGAUGCUUGGGUU [hsa-mir-3182] | -1.11 | -0.405 | -0.389 | -0.278 | 0.421
21 | UGGAGGCUGCAGUGAGCCGAGAUCGAGCCACUGUACUCCA [hsa-mir-1273e] | 0.0244 | 0.259 | -0.0556 | 1.14 | 1.09
22 | GAGACUGCCCAAAGACUCUUCAGUAUC [hsa-mir-2681] | -0.411 | 0.782 | 0.272 | 0.738 | 0.223
23 | CACACACAAUCACCGUGUG [hsa-mir-3118-2_3118-3_3118-4] | 0.27 | 0.0723 | -0.0846 | -0.218 | -1.24
24 | UGGGUAGGAAUAUCCUGGAUCCCCU [hsa-mir-3189] | -0.575 | -0.0266 | 0.312 | 0.102 | 0.501
25 | CAAUCAUGUAUAACUAAAUUUGAUUG [hsa-mir-514a-2_514a-3] | 0.276 | -1.04 | -0.513 | -1.55 | -1.74
26 | CCUAGUGGCUAGCCCUGGGUCUAGCAGCCUAUGGCAGUGUCUGGUAAACACUGGUGGAGUCCUGGG [hsa-mir-6745] | 0.335 | -0.189 | -0.307 | 0.336 | 1.22
27 | UGGGAGGUAAGAGCUCUUCACCCUUCA [hsa-mir-197] | -0.817 | -0.46 | -0.132 | -0.119 | 0.638
28 | GGCCAUCUGCUAUUCGUCCACCAACCUGACUUGAUCC [hsa-mir-7111] | 0.0541 | -0.0213 | 0.0293 | 0.256 | 0.477
29 | AUUGUUGCCUCUGCAUGUUACAAU [hsa-mir-8066] | 0.523 | -0.204 | -0.512 | -0.485 | -0.665
30 | GCUGGGCUGAGCUAACCAGGGCUGGGCUGAGC [hsa-mir-4537] | 0.991 | 0.138 | -0.0332 | 0.532 | 1.42
